Measured values as given in patent US20230212587A1, “Mutant Hydroxyphenylpyruvate Dioxygenase Polypeptide, Encoding Gene Thereof and Use Therefor” (Beijing Dabeinong Biotechnology Co., Ltd., priority 2019, published 2023).

B1: N3HPPD-02: native Burkholderia sp. N3 HPPD, SEQ ID NO: 159 (protein)
chain: MQIPNWENPVGTDGFEFIEYTAPDPKALGQLFERMGFTAIARHRHKDVTVYRQGDINFIINAEPHSFAQRFARLHGPSICAIAFRVQDAAKAYQHALELGAWGFDNKTGPMELNIPAIKGIGDSLIYFVDRWRGKNGAQPGAIGDISIYDVDFEPIAGANPNPAGHGLTYIDHLTHNVHRGRMQEWAEFYERLFNFREVRYFDIEGKVTGVKSKAMTSPCGKIRIPINEEGSDTAGQIQEYLDAYHGEGIQHIALGTNDIYGAVDGLRGKEVKLLDTIDTYYELVDRRVPDHGESLDELKKRKILIDGARDDLLLQIFTENQIGPIFFEIIQRKGNQGFGEGNFKALFESIELDQIRRGVVQDKA
modifications: N3HPPD Amino Acid Sequence (Burkholderia)
B2: N3HPPDm-F372A-02: Burkholderia sp. N3 HPPD mutant F372A, SEQ ID NO: 162 (protein)
chain: MQIPNWENPVGTDGFEFIEYTAPDPKALGQLFERMGFTAIARHRHKDVTVYRQGDINFIINAEPHSFAQRFARLHGPSICAIAFRVQDAAKAYQHALELGAWGFDNKTGPMELNIPAIKGIGDSLIYFVDRWRGKNGAQPGAIGDISIYDVDFEPIAGANPNPAGHGLTYIDHLTHNVHRGRMQEWAEFYERLFNFREVRYFDIEGKVTGVKSKAMTSPCGKIRIPINEEGSDTAGQIQEYLDAYHGEGIQHIALGTNDIYGAVDGLRGKEVKLLDTIDTYYELVDRRVPDHGESLDELKKRKILIDGARDDLLLQIATENQIGPIFFEIIQRKGNQGFGEGNFKALFESIELDQIRRGVVQDKA
modifications: N3HPPDm-F372A Amino Acid Sequence
B3: N1HPPDm-F372A-02: Sphingobium sp. N1 HPPD mutant F372A, SEQ ID NO: 150 (protein)
chain: MAADSENPLGLHGFAFAEFTSPDPAAMARQFEQLGFVPAARRKDRGLTLYRQGRIAFILNAGEGEQASAFRAAHGPSANGMAFNVADAKAAHRHAIQSGATDADTAQSALPGTYAIEGIGDSLLYLVDSDPFADWDEVPGWREASAERGVGLDLLDHLTHNVRRGQMRVWSEFYATLFGFEEQKFFDIKGQATGLFSQAMIAPDHEIRIPLNESQDDNSQIEEFIREYNGEGIQHLALTTPDIYSTVEKLRANGVRLQDTIDTYYDLVDERVPGHGEDLARLRKNRILIDGDVHDEGLLLQIATETMFGPIFFEIIQRKGNEGFGNGNFQVLYESIELDQIRRGVVTVDA
modifications: N1HPPDm-F372A Amino Acid Sequence
B4: N2HPPD-02: native Sphingobium sp. N2 HPPD, SEQ ID NO: 153 (protein)
chain: MTLFDNPLGLDGFEFVEFSAPAKGMLEPVFAAMGFVMIARHRSKDVQLWRQGGINLIANYEPRSPAAYFAAEHGPSACGMGWRVRNAAKAYELAVERGAEPVDVKTGPMELRLPAIRGIGGSIIYLIDRYEDEDGGLSIYDIDFVYEPGVDRHPEGAGFKIIDHLTHNVYGGRMAHWASFYERVFGFREIRYFDIKGEYTGLTSKAMTAPDGKIRIPLNEEGKAGGGQIEEFLRAYNGEGIQHIAFLCDDLIAAWDKLKALGTPLMTAPPATYYEMLDERLPGHGEPVAELQKRGILLDGSTQQGDPRLLLQIFGQATIGPVFFEFIQRKKDEGFGEGNFTALFESMERDQLRRGTLNAGESA
modifications: N2HPPD Amino Acid Sequence (Sphingobacterium)
B5: N2HPPDm-F372A-02: Sphingobium sp. N2 HPPD mutant F372A, SEQ ID NO: 156 (protein)
chain: MTLFDNPLGLDGFEFVEFSAPAKGMLEPVFAAMGFVMIARHRSKDVQLWRQGGINLIANYEPRSPAAYFAAEHGPSACGMGWRVRNAAKAYELAVERGAEPVDVKTGPMELRLPAIRGIGGSIIYLIDRYEDEDGGLSIYDIDFVYEPGVDRHPEGAGFKIIDHLTHNVYGGRMAHWASFYERVFGFREIRYFDIKGEYTGLTSKAMTAPDGKIRIPLNEEGKAGGGQIEEFLRAYNGEGIQHIAFLCDDLIAAWDKLKALGTPLMTAPPATYYEMLDERLPGHGEPVAELQKRGILLDGSTQQGDPRLLLQIAGQATIGPVFFEFIQRKKDEGFGEGNFTALFESMERDQLRRGTLNAGESA
modifications: N2HPPDm-F372A Amino Acid Sequence
B6: TaHPPD-02: native Triticum aestivum HPPD, SEQ ID NO: 39 (protein, listed as Triticum aestivum)
chain: MPPTPTTPAATGAGAAAAVTPEHARPRRMVRFNPRSDRFHTLSFHHVEFWCADAASAAGRFAFALGAPLAARSDLSTGNSVHASQLLRSGNLAFLFTAPYANGCDAATASLPSFSADAARRFSADHGLAVRSIALRVADAAEAFRASVDGGARPAFSPVDLGRGFGFAEVELYGDVVLRFVSHPDGTDVPFLPGFEGVSNPGAVDYGLTRFDHVVGNVPELASAAAYVAGFTGFHEFAEFTTEDVGTAESGLNSMVLANNSEGVLLPLNEPVHGTKRRSQIQTFLEHHGGPGVQHIAVASSDVLRTLREMRARSAMGGFDFLPPPLPKYYEGVRRIAGDVLSEAQIKECQELGVLVDRDDQGVLLQIFTKPVGDRPTLFLEMIQRIGCMEKDERGEEYQKGGCGGFGKGNFSELFKSIEDYEKSLEAKQSAAVQGS
modifications: TaHPPD Amino Acid Sequence

System: Arabidopsis thaliana T1 plants
Assay: Topramezone tolerance of transgenic Arabidopsis thaliana T1 plants (pesticide damage grade by bleached leaf area, score, resistance evaluation)
Assay type: in vivo
Settings: HPPDs from different species, 7 DAT; for Classification and statistics of pesticide damage grade Grade 0 / Classification and statistics of pesticide damage grade Grade 1 / Classification and statistics of pesticide damage grade Grade 2 / Classification and statistics of pesticide damage grade Grade 3: number of plants (of 16) in this grade; for Scores: score for pesticide damage 0-100
Method in brief: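 Herbicide tolerance was judged per plant on a bleaching scale (grade 0 no bleaching to grade 3 fully bleached) 7 DAT. Topramezone doses were 0, 25, 50 and 100 g ai/ha on 18-day-old T1 and wild-type plants.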

| Molecule | Classification and statistics of pesticide damage grade Grade 0 (topramezone 25 g ai/ha (1x)) | Classification and statistics of pesticide damage grade Grade 1 (topramezone 25 g ai/ha (1x)) | Classification and statistics of pesticide damage grade Grade 2 (topramezone 25 g ai/ha (1x)) | Classification and statistics of pesticide damage grade Grade 3 (topramezone 25 g ai/ha (1x)) | Classification and statistics of pesticide damage grade Grade 0 (topramezone 100 g ai/ha (4x)) | Classification and statistics of pesticide damage grade Grade 1 (topramezone 100 g ai/ha (4x)) | Classification and statistics of pesticide damage grade Grade 2 (topramezone 100 g ai/ha (4x)) | Classification and statistics of pesticide damage grade Grade 3 (topramezone 100 g ai/ha (4x)) | Scores (topramezone 25 g ai/ha (1x)) | Scores (topramezone 100 g ai/ha (4x)) | Resistance evaluation (topramezone 25 g ai/ha (1x)) | Resistance evaluation (topramezone 100 g ai/ha (4x)) |
| --- | --- | --- | --- | --- | --- | --- | --- | --- | --- | --- | --- | --- |
| B1 | 0 | 6 | 8 | 2 | 0 | 0 | 0 | 16 | 58 | 100 | poorly resistant (poorly resistant plants (scores 34-67)) | non-resistant (non-resistant plants (scores 68-100)) |
| B2 | 16 | 0 | 0 | 0 | 12 | 4 | 0 | 0 | 0 | 8 | highly resistant (highly resistant plants (scores 0-15)) | highly resistant (highly resistant plants (scores 0-15)) |
| B3 | 16 | 0 | 0 | 0 | 16 | 0 | 0 | 0 | 0 | 0 | highly resistant (highly resistant plants (scores 0-15)) | highly resistant (highly resistant plants (scores 0-15)) |
| B4 | 0 | 1 | 15 | 0 | 0 | 0 | 0 | 16 | 65 | 100 | poorly resistant (poorly resistant plants (scores 34-67)) | non-resistant (non-resistant plants (scores 68-100)) |
| B5 | 16 | 0 | 0 | 0 | 16 | 0 | 0 | 0 | 0 | 0 | highly resistant (highly resistant plants (scores 0-15)) | highly resistant (highly resistant plants (scores 0-15)) |
| B6 | 0 | 0 | 0 | 16 | 0 | 0 | 0 | 16 | 100 | 100 | non-resistant (non-resistant plants (scores 68-100)) | non-resistant (non-resistant plants (scores 68-100)) |
